The labels stand for the following.
B2: human NKG2D (receptor)
chain: IPLTESYCGPCPKNWICYKNNCYQFFDESKNWYESQASCMSQNASLLKVYSKEDQDLLKLVKSYHWMGLVHIPTNGSWQWEDGSILSPNLLTIIEMQKGDCALYASSFKGYIENCSTPNTYICMQRTV

The assay “human NKG2D” concerns the target B2. Briefly: printed as 'binding coefficients'; method not stated.
Assay [1] addresses OMCP (WT OMCPBR, cowpox virus Brighton Red) (cowpox virus (Brighton Red strain)). The assay is described as above.

The text below walks through data of patent US20190119345A1 (published 2019).

B1: KYK-1 antibody (antibody, V domains shown)
VH: EVQLVESGGGVVQPGGSLRLSCAASGFTFSSYGMHWVRQAPGKGLEWVAFIRYDGSNKYYADSVKGRFTISRDNSKNTLYLQMNSLRAEDTAVYYCAKDRFGYYLDYWGQGTLVTVSS
VL: QPVLTQPSSVSVAPGETARIPCGGDDIETKSVHWYQQKPGQAPVLVIYDDDDRPSGIPERFFGSNSGNTATLSISRVEAGDEADYYCQVWDDNNDEWVFGGGTQLTVL
Turning to B1, the Kd with human NKG2D is 27 nM.
In assay [1], B2 came in with a Kd of 0.1 nM. This lies in the sub-nanomolar range.

B3: KYK-2 antibody (antibody, V domains shown)
VH: QVQLVESGGGLVKPGGSLRLSCAASGFTFSSYGMHWVRQAPGKGLEWVAFIRYDGSNKYYADSVKGRFTISRDNSKNTLYLQMNSLRAEDTAVYYCAKDRGLGDGTYFDYWGQGTTVTVSS
VL: QSALTQPASVSGSPGQSITISCSGSSSNIGNNAVNWYQQLPGKAPKLLIYYDDLLPSGVSDRFSGSKSGTSAFLAISGLQSEDEADYYCAAWDDSLNGPVFGGGTKLTVL
The molecule B3 registered a Kd in the assay with human NKG2D of 6 nM.
